The values below come from patent publication US20250304679A1 (LTZ THERAPEUTICS, published 2025).

Where a chain is given by its changes, count along the chain named.

The target of assay [1] is CD3 on Jurkat-Lucia NFAT reporter T lymphocytes (UniProt P07766 23-207). As to the kind of experiment: cell-based or functional assay.
For assay [2], the target named is T1, antigen on malignant B cell lines (BJAB, Daudi, SUDHL-4, Nalm-6) bound by Mosunetuzumab, not named in the ….
T1 chain: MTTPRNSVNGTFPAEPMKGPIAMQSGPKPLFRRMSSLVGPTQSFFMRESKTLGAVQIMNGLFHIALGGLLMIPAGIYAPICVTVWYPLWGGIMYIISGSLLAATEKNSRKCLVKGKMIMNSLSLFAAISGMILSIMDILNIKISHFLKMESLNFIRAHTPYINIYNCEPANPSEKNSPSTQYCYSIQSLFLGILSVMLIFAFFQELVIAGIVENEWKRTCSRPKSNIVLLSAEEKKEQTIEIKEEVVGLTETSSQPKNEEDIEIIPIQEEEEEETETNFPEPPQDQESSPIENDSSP
As to the kind of experiment: flow cytometry (MFI of PE) on BJAB cells. On the procedure:
(§1) To evaluated the affinities of chCD79b×msnCD3 antibodies to malignant B cell lines. BJAB, Daudi, SUDHL-4 and Nalm-6 cells were purchased from ATCC. For each different cell line, 5×10⁴ cells were mixed with serially diluted antibodies Pola/msnCD3, 22D10/msnCD3, 44G2/msnCD3, 48H10/msnCD3 and 57B9/msnCD3, Mosunetuzumab, and negative control Human IgG Isotype Control (Invitrogen Catalog #02-7102) and incubated on ice for 30 minutes. After incubation, cells were washed twice and detected with an anti-human IgG PE secondary antibody (ebioscience. Cat: 12-4998-82). For analysis, the mean fluorescence intensity (MFI of PE) of each antibody was determined and plotted using GraphPad prism software (version 10.10.1; GraphPad Software Inc).
(In general: A flow cytometer gives signals particle by particle.)

Assay [3] addresses T1, antigen on malignant B cell lines …. As to the kind of experiment: flow cytometry (MFI of PE) on Daudi cells. The method, then: as §1
Assay [4] shares this target. As to the kind of experiment: flow cytometry (MFI of PE) on SUDHL-4 cells. The method, then:
as §1

Assay [5] addresses T2, CD79b on malignant B cell lines (BJAB, Daudi, SUDHL-4, Nalm-6) (UniProt P40259 29-229, limits assumed).
T2 construct: whole, on cells; also called malignant B cells
T2 sequence (looked up): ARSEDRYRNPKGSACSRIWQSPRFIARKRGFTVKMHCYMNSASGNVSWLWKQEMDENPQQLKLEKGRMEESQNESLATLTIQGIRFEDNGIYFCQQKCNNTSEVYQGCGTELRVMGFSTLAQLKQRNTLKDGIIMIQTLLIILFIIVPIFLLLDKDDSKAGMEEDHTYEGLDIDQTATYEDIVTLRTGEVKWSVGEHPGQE
The assay is described as follows: flow cytometry (MFI of PE) on BJAB cells. On the procedure:
as §1

Assay [6] addresses T2, CD79b on malignant B cell lines (BJAB, …). As to the kind of experiment: flow cytometry (MFI of PE) on Daudi cells. On the procedure:
as §1

Assay [7] shares this target. As to the kind of experiment: flow cytometry (MFI of PE) on Nalm-6 cells. The method, then: as §1
Assay [8] shares this target. As to the kind of experiment: flow cytometry (MFI of PE) on SUDHL-4 cells. On the procedure:
as §1

CD3 on Jurkat-Lucia NFAT reporter T lymphocytes, sequence (P07766 23-207): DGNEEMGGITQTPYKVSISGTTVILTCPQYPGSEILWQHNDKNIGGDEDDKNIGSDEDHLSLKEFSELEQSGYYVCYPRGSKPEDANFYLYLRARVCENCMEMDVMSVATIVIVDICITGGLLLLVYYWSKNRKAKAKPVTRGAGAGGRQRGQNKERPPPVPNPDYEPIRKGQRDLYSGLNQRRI

B1: Mosunetuzumab (bispecific antibody)
chain 1: not shown
chain 2: DIQMTQSPSSLSASVGDRVTITCRASSSVSYMHWYQQKPGKAPKPLIYAPSNLASGVPSRFSGSGSGTDFTLTISSLQPEDFATYYCQQWSFNPPTFGQGTKVEIKRTVAAPSVFIFPPSDEQLKSGTASVVCLLNNFYPREAKVQWKVDNALQSGNSQESVTEQDSKDSTYSLSSTLTLSKADYEKHKVYACEVTHQGLSSPVTKSFNRGEC
chain 3: EVQLVQSGAEVKKPGASVKVSCKASGYTFTNYYIHWVRQAPGQGLEWIGWIYPGDGNTKYNEKFKGRATLTADTSTSTAYLELSSLRSEDTAVYYCARDSYSNYYFDYWGQGTLVTVSSASTKGPSVFPLAPSSKSTSGGTAALGCLVKDYFPEPVTVSWNSGALTSGVHTFPAVLQSSGLYSLSSVVTVPSSSLGTQTYICNVNHKPSNTKVDKKVEPKSCDKTHTCPPCPAPELLGGPSVFLFPPKPKDTLMISRTPEVTCVVVDVSHEDPEVKFNWYVDGVEVHNAKTKPREEQYGSTYRVVSVLTVLHQDWLNGKEYKCKVSNKALPAPIEKTISKAKGQPREPQVYTLPPSREEMTKNQVSLSCAVKGFYPSDIAVEWESNGQPENNYKTTPPVLDSDGSFFLVSKLTVDKSRWQQGNVFSCSVMHEALHNHYTQKSLSLSPGK
chain 4: not shown
Broadly, the EC50 is the concentration giving half of the maximal effect. Regarding B1, in assay [1], the “T cell activation effect, NFAT-Luc reporter, EC50 nM” value (shortened to “T cell activation effect”) is 2.06 nM. Besides, the EC50 is 50.4 nM in assay [2], 13.7 nM in assay [3] and 30.6 nM in assay [4].

B2: 57B9/msnCD3 (bispecific antibody, human IgG1, kappa, N297G)
light: ALVMTQTPSSVSADVGGTVSINCQASEDIESYLAWYQQKPGQPPKLLIYFTSNLASGVPSRFKGSGSGTEYTLTISGVQPDDAATYYCQQGYRNSDVHNPFGGGTEVVVKRTVAAPSVFIFPPSDEQLKSGTASVVCLLNNFYPREAKVQWKVDNALQSGNSQESVTEQDSKDSTYSLSSTLTLSKADYEKHKVYACEVTHQGLSSPVTKSFNRGEC
heavy: QSVRETGGGLVQPGGSLTLSCEASEFTINIDYWISWVRQAPGKGLEWIGIIDPGDGTTYFAIWVNGRFTITRNTNLNTVDLKMTSLTEADTATYFCAREVSASAYQYDLWGPGTLVTVSSASTKGPSVFPLAPSSKSTSGGTAALGCLVKDYFPEPVTVSWSSGALTSGVHTFPAVLQSSGLYSLSSVVTVPSSSLGTQTYICNVNHKPSNTKVDKKVEPKSCDKTHTCPPCPAPELLGGPSVFLFPPKPKDTLMISRTPEVTCVVVDVSHEDPEVKFNWYVDGVEVHNAKTKPREEQYGSTYRVVSVLTVLHQDWLNGKEYKCKVSNKALPAPIEKTISKAKGQPREPQVYTLPPSRDELTKNQVSLSCAVKGFYPSDIAVEWESNGQPENNYKTTPPVLDSDGSFFLVSKLTVDKSRWQQGNVFSCSVMHEALHNRFTQKSLSLSPGK
chain: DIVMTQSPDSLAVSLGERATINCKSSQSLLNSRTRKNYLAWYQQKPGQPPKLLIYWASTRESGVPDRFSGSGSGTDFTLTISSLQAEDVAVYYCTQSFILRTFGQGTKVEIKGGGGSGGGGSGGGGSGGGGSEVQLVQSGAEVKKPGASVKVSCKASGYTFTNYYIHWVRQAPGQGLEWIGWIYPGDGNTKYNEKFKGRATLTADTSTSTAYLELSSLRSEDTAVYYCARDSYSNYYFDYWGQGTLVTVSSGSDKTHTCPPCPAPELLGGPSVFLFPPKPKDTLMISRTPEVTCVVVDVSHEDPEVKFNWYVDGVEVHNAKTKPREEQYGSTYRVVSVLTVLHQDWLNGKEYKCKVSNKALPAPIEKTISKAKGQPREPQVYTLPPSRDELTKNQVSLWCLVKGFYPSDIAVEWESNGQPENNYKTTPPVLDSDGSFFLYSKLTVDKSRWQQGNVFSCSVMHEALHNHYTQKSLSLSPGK
notes: also called 57B9/mscCD3; CD79b/CD3 bispecific antibody
Take B2: the “T cell activation effect” value in assay [1] is approximately 24 nM. Besides, the EC50 in assay [5] amounted to 15.1 nM; in assay [6] it was 4.59 nM; in assay [7], 9510 nM; in assay [8], 11.9 nM.

B3: 44G2/msnCD3 (bispecific antibody, human IgG1, kappa, N297G)
light: DLVMTQTPSSVSAAVGGTVSINCRASEDIENYLAWYQQKPGQPPKLLIYRASTLSSGVSSRFSGSGSGTEFTLTISGVQPDDAATYYCQQGYRNSNVDNPFGGGTEMVVKRTVAAPSVFIFPPSDEQLKSGTASVVCLLNNFYPREAKVQWKVDNALQSGNSQESVTEQDSKDSTYSLSSTLTLSKADYEKHKVYACEVTHQGLSSPVTKSFNRGEC
heavy: QSVRETGGGLVQPGGSLKLSCKASGFTINIDYWISWVRQAPGKGLEWIGIIDPGDGTTYFAIWVNGRFTISFDNTQNTVDLQMNSLTAADTATYFCVREFSASAYQYDLWGPGTLVTVSSASTKGPSVFPLAPSSKSTSGGTAALGCLVKDYFPEPVTVSWSSGALTSGVHTFPAVLQSSGLYSLSSVVTVPSSSLGTQTYICNVNHKPSNTKVDKKVEPKSCDKTHTCPPCPAPELLGGPSVFLFPPKPKDTLMISRTPEVTCVVVDVSHEDPEVKFNWYVDGVEVHNAKTKPREEQYGSTYRVVSVLTVLHQDWLNGKEYKCKVSNKALPAPIEKTISKAKGQPREPQVYTLPPSRDELTKNQVSLSCAVKGFYPSDIAVEWESNGQPENNYKTTPPVLDSDGSFFLVSKLTVDKSRWQQGNVFSCSVMHEALHNRFTQKSLSLSPGK
chain: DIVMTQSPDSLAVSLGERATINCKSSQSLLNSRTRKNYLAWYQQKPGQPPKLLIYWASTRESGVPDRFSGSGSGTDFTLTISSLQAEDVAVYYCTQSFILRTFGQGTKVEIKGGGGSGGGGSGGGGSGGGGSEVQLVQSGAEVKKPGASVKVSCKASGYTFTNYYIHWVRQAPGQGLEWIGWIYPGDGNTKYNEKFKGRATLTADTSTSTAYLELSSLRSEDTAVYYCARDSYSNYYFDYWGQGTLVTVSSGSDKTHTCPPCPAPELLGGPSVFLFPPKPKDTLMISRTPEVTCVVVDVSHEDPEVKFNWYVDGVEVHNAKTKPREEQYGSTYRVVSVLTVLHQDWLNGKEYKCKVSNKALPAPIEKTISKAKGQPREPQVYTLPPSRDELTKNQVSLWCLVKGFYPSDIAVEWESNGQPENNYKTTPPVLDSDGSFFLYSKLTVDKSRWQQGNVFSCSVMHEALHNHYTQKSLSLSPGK
notes: also called CD79b/CD3 bispecific antibody; chCD79b×msnCD3
In the case of B3, in assay [1], the “T cell activation effect” value came out at 1.12 nM. For the same molecule, the concentration for a half-maximal effect (EC50) stood at 4.33 nM in assay [5], 0.614 nM in assay [6], 9.53 nM in assay [7] and 1.73 nM in assay [8].

B4: 48H10/msnCD3 (bispecific antibody, human IgG1, kappa, N297G)
light: B3 light with D1A, R24Q, N31S, A34T, I48M, G64A, S95K, N96D, M107V
heavy: B3 heavy with R4K, K18T, F72T, T75A, V97A
chain: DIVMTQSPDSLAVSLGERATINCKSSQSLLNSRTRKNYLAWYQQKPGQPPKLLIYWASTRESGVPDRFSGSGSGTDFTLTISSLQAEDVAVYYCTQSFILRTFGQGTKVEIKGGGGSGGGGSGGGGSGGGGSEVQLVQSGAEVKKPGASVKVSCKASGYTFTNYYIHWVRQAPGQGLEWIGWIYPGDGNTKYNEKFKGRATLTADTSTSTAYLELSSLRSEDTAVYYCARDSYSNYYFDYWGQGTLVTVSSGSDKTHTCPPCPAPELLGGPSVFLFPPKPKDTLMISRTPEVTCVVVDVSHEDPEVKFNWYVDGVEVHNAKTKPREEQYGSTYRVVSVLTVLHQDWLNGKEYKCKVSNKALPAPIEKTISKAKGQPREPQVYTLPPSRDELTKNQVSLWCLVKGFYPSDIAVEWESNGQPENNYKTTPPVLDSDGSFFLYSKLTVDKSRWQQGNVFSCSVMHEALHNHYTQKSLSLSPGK
notes: as for B3
As to B4, the “T cell activation effect” value in assay [1] is 1.91 nM. Further, the EC50 in assay [5] was 2.88 nM; in assay [6], 1.28 nM; in assay [7], 19 nM; in assay [8] it was 3.23 nM.

B5: 22D10/msnCD3 (bispecific antibody, human IgG1, kappa, N297G)
light: ALVMTQTPSSVSAAVGGTVTINCRASEDIERYLAWYQQKPGQRPKLLIYGASTLASGVPSRFKGSGSGTEYTLTISGVQPDDAATYYCHQGDSSRNVVNVFGGGTEVVVKRTVAAPSVFIFPPSDEQLKSGTASVVCLLNNFYPREAKVQWKVDNALQSGNSQESVTEQDSKDSTYSLSSTLTLSKADYEKHKVYACEVTHQGLSSPVTKSFNRGEC
heavy: QSVEESGGRLVTPGTPLTLTCTASGFTINDYHMNWVRQAPGKGLEWIGIISSNGDTYYASWAKGRFTISRTSTTVDLKMTSLTTEDTATYFCARDDRDRSYAFDPWGPGTLVTVSSASTKGPSVFPLAPSSKSTSGGTAALGCLVKDYFPEPVTVSWSSGALTSGVHTFPAVLQSSGLYSLSSVVTVPSSSLGTQTYICNVNHKPSNTKVDKKVEPKSCDKTHTCPPCPAPELLGGPSVFLFPPKPKDTLMISRTPEVTCVVVDVSHEDPEVKFNWYVDGVEVHNAKTKPREEQYGSTYRVVSVLTVLHQDWLNGKEYKCKVSNKALPAPIEKTISKAKGQPREPQVYTLPPSRDELTKNQVSLSCAVKGFYPSDIAVEWESNGQPENNYKTTPPVLDSDGSFFLVSKLTVDKSRWQQGNVFSCSVMHEALHNRFTQKSLSLSPGK
chain: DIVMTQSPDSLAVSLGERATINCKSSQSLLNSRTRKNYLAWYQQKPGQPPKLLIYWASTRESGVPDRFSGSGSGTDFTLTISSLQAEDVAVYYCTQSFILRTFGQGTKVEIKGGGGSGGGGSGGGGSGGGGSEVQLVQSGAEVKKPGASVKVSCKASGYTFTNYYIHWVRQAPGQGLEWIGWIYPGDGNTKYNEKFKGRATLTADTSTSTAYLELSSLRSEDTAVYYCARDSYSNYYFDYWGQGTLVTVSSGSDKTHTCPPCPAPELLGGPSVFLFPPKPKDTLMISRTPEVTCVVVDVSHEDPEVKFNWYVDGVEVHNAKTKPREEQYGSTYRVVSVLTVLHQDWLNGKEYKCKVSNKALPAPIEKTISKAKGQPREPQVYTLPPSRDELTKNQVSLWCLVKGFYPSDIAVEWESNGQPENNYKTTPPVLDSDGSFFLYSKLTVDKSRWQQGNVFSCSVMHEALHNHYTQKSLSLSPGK
notes: as for B3
For the molecule B5, the “T cell activation effect” value in assay [1] worked out at 866 nM. Further, the figures for the concentration for a half-maximal effect (EC50) in assay [5] and in assay [6] were 1.24 nM and 17.1 nM, respectively.

B6: Pola/msnCD3 (bispecific antibody, human IgG1, kappa, N297G)
light: DIQLTQSPSSLSASVGDRVTITCKASQSVDYEGDSFLNWYQQKPGKAPKLLIYAASNLESGVPSRFSGSGSGTDFTLTISSLQPEDFATYYCQQSNEDPLTFGQGTKVEIKRTVAAPSVFIFPPSDEQLKSGTASVVCLLNNFYPREAKVQWKVDNALQSGNSQESVTEQDSKDSTYSLSSTLTLSKADYEKHKVYACEVTHQGLSSPVTKSFNRGEC
heavy: EVQLVESGGGLVQPGGSLRLSCAASGYTFSSYWIEWVRQAPGKGLEWIGEILPGGGDTNYNEIFKGRATFSADTSKNTAYLQMNSLRAEDTAVYYCTRRVPIRLDYWGQGTLVTVSSASTKGPSVFPLAPSSKSTSGGTAALGCLVKDYFPEPVTVSWSSGALTSGVHTFPAVLQSSGLYSLSSVVTVPSSSLGTQTYICNVNHKPSNTKVDKKVEPKSCDKTHTCPPCPAPELLGGPSVFLFPPKPKDTLMISRTPEVTCVVVDVSHEDPEVKFNWYVDGVEVHNAKTKPREEQYGSTYRVVSVLTVLHQDWLNGKEYKCKVSNKALPAPIEKTISKAKGQPREPQVYTLPPSRDELTKNQVSLSCAVKGFYPSDIAVEWESNGQPENNYKTTPPVLDSDGSFFLVSKLTVDKSRWQQGNVFSCSVMHEALHNRFTQKSLSLSPGK
chain: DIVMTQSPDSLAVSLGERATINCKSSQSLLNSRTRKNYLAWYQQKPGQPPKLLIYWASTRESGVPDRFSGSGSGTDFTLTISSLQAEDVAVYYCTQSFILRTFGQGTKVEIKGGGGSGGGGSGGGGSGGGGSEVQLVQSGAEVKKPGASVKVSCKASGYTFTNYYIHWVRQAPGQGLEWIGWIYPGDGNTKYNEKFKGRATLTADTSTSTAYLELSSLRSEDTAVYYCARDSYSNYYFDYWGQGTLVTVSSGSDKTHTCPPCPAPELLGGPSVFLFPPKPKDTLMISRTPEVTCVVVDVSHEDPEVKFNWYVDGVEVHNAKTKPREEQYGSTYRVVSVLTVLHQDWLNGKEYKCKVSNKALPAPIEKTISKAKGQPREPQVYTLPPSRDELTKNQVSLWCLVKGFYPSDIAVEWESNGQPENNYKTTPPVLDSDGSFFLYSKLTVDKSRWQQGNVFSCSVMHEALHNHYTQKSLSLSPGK
notes: as for B3
As for B6, the “T cell activation effect” value in assay [1] was approximately 15.4 nM. Also, the concentration giving a half-maximal response (EC50) stood at 18.9 nM in assay [5], 4.04 nM in assay [6] and 15.5 nM in assay [8].
